Columns and labels:
[1] = target: HLA-C*15:02; assay: IEDB peptide-MHC binding, purified MHC/direct/fluorescence; filed as Kd, often an IC50 or EC50 that approximates it; ≥ and ≤ were set here for values at or beyond the usual limits of such assays
[2] = target: HLA-A*02:01; assay: IEDB peptide-MHC binding, purified MHC/competitive/fluorescence; filed as Kd, often an IC50 or EC50 that approximates it; ≥ and ≤ were set here for values at or beyond the usual limits of such assays
[3] = target: HLA-A*01:01; assay: IEDB peptide-MHC binding, purified MHC/direct/fluorescence; filed as Kd, often an IC50 or EC50 that approximates it; ≥ and ≤ were set here for values at or beyond the usual limits of such assays
[4] = target: HLA-A*02:01; assay: as above; conditions: source organism: Orthomarburgvirus marburgense
[5] = target: HLA-A*11:01; assay: as above
[6] = target: HLA-A*26:02; assay: as above
[7] = target: HLA-A*26:03; assay: as above
[8] = target: HLA-A*31:01; assay: as above
[9] = target: HLA-A*68:02; assay: as above; conditions: source organism: Orthomarburgvirus marburgense
[10] = target: HLA-A*69:01; assay: as above
[11] = target: HLA-B*07:02; assay: as above
[12] = target: HLA-B*08:02; assay: as above
[13] = target: HLA-B*08:03; assay: as above
[14] = target: HLA-B*15:17; assay: as above; conditions: source organism: Orthomarburgvirus marburgense
[15] = target: HLA-B*18:01; assay: as above
[16] = target: HLA-B*27:05; assay: as above
[17] = target: HLA-B*40:01; assay: as above
[18] = target: HLA-B*44:02; assay: as above; conditions: source organism: Orthomarburgvirus marburgense
[19] = target: HLA-B*48:01; assay: as above
[20] = target: HLA-B*57:01; assay: as above
[21] = target: HLA-B*58:01; assay: as above
[22] = target: HLA-A*02:06; assay: IEDB peptide-MHC binding, purified MHC/competitive/fluorescence; filed as Kd, often an IC50 or EC50 that approximates it; ≥ and ≤ were set here for values at or beyond the usual limits of such assays
[23] = target: HLA-B*39:01; assay: as above; conditions: source organism: Orthomarburgvirus marburgense
[24] = target: HLA-B*15:42; assay: as above; conditions: source organism: Yellow fever virus
[25] = target: HLA-B*45:06; assay: as above; conditions: source organism: Yellow fever virus
[26] = target: HLA-B*83:01; assay: as above; conditions: source organism: Yellow fever virus
[27] = target: HLA-C*14:02; assay: as above; conditions: source organism: Yellow fever virus
[28] = target: HLA-A*03:01; assay: IEDB peptide-MHC binding, purified MHC/direct/fluorescence; filed as Kd, often an IC50 or EC50 that approximates it; ≥ and ≤ were set here for values at or beyond the usual limits of such assays
[29] = target: HLA-A*26:01; assay: as above
[30] = target: HLA-B*08:01; assay: as above
[31] = target: HLA-B*15:01; assay: as above; conditions: source organism: Burkholderia mallei
[32] = target: HLA-B*46:01; assay: as above
[33] = target: HLA-A*68:02; assay: IEDB peptide-MHC binding, purified MHC/competitive/fluorescence; filed as Kd, often an IC50 or EC50 that approximates it; ≥ and ≤ were set here for values at or beyond the usual limits of such assays
[34] = target: HLA-B*15:17; assay: as above
[35] = target: HLA-B*27:05; assay: as above; conditions: source organism: Burkholderia mallei NCTC 10229
[36] = target: HLA-A*01:01; assay: as above; conditions: source organism: Human immunodeficiency virus 1
[37] = target: HLA-A*02:03; assay: as above; conditions: source organism: Human immunodeficiency virus 1
[38] = target: HLA-A*11:01; assay: as above; conditions: source organism: Human immunodeficiency virus 1
[39] = target: HLA-A*26:02; assay: as above; conditions: source organism: Human immunodeficiency virus 1
[40] = target: HLA-A*30:01; assay: as above; conditions: source organism: Human immunodeficiency virus 1
[41] = target: HLA-A*69:01; assay: as above; conditions: source organism: Human immunodeficiency virus 1
[42] = target: HLA-B*18:01; assay: as above; conditions: source organism: Human immunodeficiency virus 1
[43] = target: HLA-B*15:01; assay: as above; conditions: source organism: Giardia lamblia ATCC 50803
[44] = target: HLA-B*57:01; assay: as above; conditions: source organism: Giardia lamblia ATCC 50803
[45] = source organism: Camelpox virus CMS
[46] = source organism: Orthomarburgvirus marburgense
[47] = source organism: Ravn virus - Ravn, Kenya, 1987
[48] = source organism: Burkholderia mallei
[49] = source organism: Burkholderia mallei ATCC 23344
[50] = source organism: Burkholderia mallei NCTC 10229
[51] = source organism: Human immunodeficiency virus 1
[52] = source organism: Giardia intestinalis
[53] = source organism: Giardia lamblia ATCC 50803

## IVIEAIHTV
[1]; [45]
  Kd: 0.341 µM
[2]; [45]
  Kd: 0.0021 µM

## LEHGLYPQL
[3]; [46]
  Kd: ≥ 20 µM
[4]
  Kd: ≥ 20 µM
[5]; [46]
  Kd: ≥ 20 µM
[6]; [47]
  Kd: ≥ 20 µM
[7]; [47]
  Kd: ≥ 20 µM
[8]; [46]
  Kd: ≥ 20 µM
[9]
  Kd: ≥ 20 µM
[10]; [46]
  Kd: ≥ 20 µM
[11]; [46]
  Kd: ≥ 20 µM
[12]; [47]
  Kd: ≥ 20 µM
[13]; [47]
  Kd: ≥ 20 µM
[14]
  Kd: ≥ 20 µM
[15]; [46]
  Kd: 0.034 µM
[16]; [46]
  Kd: ≥ 20 µM
[17]; [46]
  Kd: 0.017 µM
[18]
  Kd: ≥ 5 µM
[19]; [46]
  Kd: 0.634 µM
[20]; [46]
  Kd: ≥ 20 µM
[21]; [46]
  Kd: ≥ 20 µM
[22]; [46]
  Kd: ≥ 20 µM
[23]
  Kd: 0.931 µM

## MWHVTRGAF
[1]; source organism: Yellow fever virus
  Kd: ≥ 20 µM
[24]
  Kd: ≥ 5 µM
[25]
  Kd: ≥ 5 µM
[26]
  Kd: ≥ 5 µM
[27]
  Kd: 0.0028 µM

## RRSLLAHVR
[3]; [48]
  Kd: ≥ 20 µM
[28]; [48]
  Kd: 1.18 µM
[5]; [48]
  Kd: 1.13 µM
[29]; [49]
  Kd: ≥ 20 µM
[6]; [49]
  Kd: ≥ 20 µM
[7]; [49]
  Kd: ≥ 20 µM
[8]; [48]
  Kd: 5.4 µM
[11]; [48]
  Kd: ≥ 20 µM
[30]; [49]
  Kd: ≥ 20 µM
[12]; [49]
  Kd: ≥ 20 µM
[31]
  Kd: ≥ 20 µM
[15]; [48]
  Kd: ≥ 20 µM
[17]; [48]
  Kd: ≥ 20 µM
[32]; [48]
  Kd: ≥ 20 µM
[19]; [48]
  Kd: ≥ 20 µM
[20]; [48]
  Kd: ≥ 20 µM
[21]; [48]
  Kd: ≥ 20 µM
[2]; [50]
  Kd: 0.034 µM
[33]; [50]
  Kd: 2.92 µM
[34]; [50]
  Kd: ≥ 20 µM
[35]
  Kd: 0.0066 µM

## RSLYNTVATLY
[36]
  Kd: ≥ 20 µM
[37]
  Kd: ≥ 20 µM
[22]; [51]
  Kd: ≥ 20 µM
[38]
  Kd: ≥ 20 µM
[39]
  Kd: ≥ 20 µM
[40]
  Kd: ≥ 20 µM
[41]
  Kd: 16.6 µM
[34]; [51]
  Kd: 0.0007 µM
[42]
  Kd: 0.0763 µM

## RTMPLSRFT
[3]; [52]
  Kd: ≥ 20 µM
[28]; [52]
  Kd: ≥ 20 µM
[5]; [52]
  Kd: 2.68 µM
[29]; [53]
  Kd: ≥ 20 µM
[7]; [53]
  Kd: ≥ 20 µM
[8]; [52]
  Kd: 12.5 µM
[10]; [52]
  Kd: ≥ 20 µM
[11]; [52]
  Kd: ≥ 20 µM
[30]; [53]
  Kd: ≥ 20 µM
[12]; [53]
  Kd: ≥ 20 µM
[13]; [53]
  Kd: ≥ 20 µM
[15]; [52]
  Kd: ≥ 20 µM
[16]; [52]
  Kd: ≥ 20 µM
[17]; [52]
  Kd: ≥ 20 µM
[32]; [52]
  Kd: ≥ 20 µM
[19]; [52]
  Kd: ≥ 20 µM
[21]; [52]
  Kd: ≥ 20 µM
[2]; [53]
  Kd: ≥ 20 µM
[33]; [53]
  Kd: 4.56 µM
[43]
  Kd: 14 µM
[34]; [53]
  Kd: ≥ 20 µM
[44]
  Kd: 0.375 µM

## STKAACPTM
[29]; source organism: West Nile virus
  Kd: 15.7 µM
[6]; source organism: West Nile virus strain PTRoxo
  Kd: 1.04 µM
